{
  "source": "patent US8772012B2",
  "about": "“Xylose isomerase and use thereof” (Kabushiki Kaisha Toyota Chuo Kenkyusho, priority 2009, dated 2014)",
  "test_system": "OC1OC[C@@H](O)[C@H](O)[C@H]1O",
  "assay": "cells, lysate or membranes named",
  "conditions": "other: xylose 5 to 250 mM, pH 7.5, 30° C., 10 mM MgCl2, crude yeast extract, Hanes-Woolf plot",
  "note": "Values joined by “and” are separate entries in the source; they are usually repeats but may differ in a detail not shown here. Identical values can stand only once.",
  "data": [
    {"substance": "Piromyces sp. E2 xylose isomerase PiXI-O (PiXI; codon optimized gene PiXI-O, SEQ ID NO: 46), expressed in yeast (Piromyces sp. E2)", "values": [
      {"measurement": "Km", "result": "40 mM and 39.87 ± 7.43 mM"}
    ]}
  ]
}
